This passage reports Invasion and F-actin levels results from patent publication EP4201483A1, “LPL1 DERIVED IMMUNE ENHANCING PEPTIDES” (priority 2021, dated 2023).

The subject of assay [1] is HaCaT cells. Description: S. aureus USA300 invasion / internalization by HaCaT keratinocytes. The format is cell-based, human. More on the design: key: ⇑: increased invasion and F-actin level; ⇓: decreased invasion and F-actin level. Conditions: Triggering invasion of USA300 by keratinocytes (HaCaT). As for the experimental part:
(§1) To identify Lpli motifs that interact with the target protein Hsp90α the inventors synthesized peptides of various length covering the whole Lpli protein. All the peptides (> 40) were tested for their ability a) to interact with Hsp90α, and b) to trigger S. aureus internalization by keratinocyte-like HaCaT cells. Table 1: Selected Lpl1 derived peptides with their effect on USA300 invasion in HaCaT keratinocytes, interaction with Hsp90α and F-actin levels in HaCaT cells
The inventors compared the effect on host internalization of L13 and L15 with that of geldanamycin. Geldanamycin is a well-known cell permeable anti-neoplastic drug that competes with ATP for binding to Hsp90, thus inhibiting Hsp90 activity (Gorska et al., 2012). This in turn leads to inactivation, destabilization, and eventual degradation of Hsp90 client proteins, The geldanamycin analog 17AAG decreased F-actin formation upon Hsp90 inhibition (Taiyab & Rao Ch, 2011).

Assay [2] has as its system HaCaT cells. Nature of the assay: F-actin levels in HaCaT cells. More on the design: key: ⇑: increased invasion and F-actin level; ⇓: decreased invasion and F-actin level. The format is cell-based, human. The procedure:
as §1

B1: TAKGHYFVTTFYRNGKLPDEKNYKIEMKNNKIILLDEVKDDKLKQKIENFKFFGQYANL KELRK (peptide, listed as Staphylococcus aureus)
chain: TAKGHYFVTTFYRNGKLPDEKNYKIEMKNNKIILLDEVKDDKLKQKIENFKFFGQYANLKELRK
notes: 64 aa domain of S.aureus Lpli protein
In the case of B1, the Invasion result in the assay with HaCaT cells [1] is “⇑”. In addition, the F-actin levels entry in the assay on HaCaT cells [2] is “⇑”.

B2: LNC2: Lpl1 derived peptide, 64 aa, sequence shown as image only (peptide)
peptide: DEIVKELRSRYNISTEKSPILKMHIDGDLKGSSVGYRKLEIDFSKRENSKLSVIEFLSYKPAKK
As for B2, the Invasion entry in the assay with HaCaT cells [1] was “⇑”. Also, the F-actin levels entry with HaCaT cells [2] is reported as “⇑”.
